The record followed here is publication PMC11729874, “How J-chain ensures the assembly of immunoglobulin IgM pentamers” (The EMBO Journal, 2024).

Series [1] deals with murine Cμ4tp domain, recombinant (mouse). Description: SEC; analytical SE-HPLC, Superdex 200 Increase 10/300, PBS pH 7.4, 25 °C; 1 mg/mL Cµ4tp (DTT removed) and/or 0.5 mg/mL J chain (if not stated otherwise) incubated 24 h at room temperature.
Series [2] deals with the molecule itself. Put plainly: nonreducing SDS-PAGE and western blot of covalent assemblies; HEK293/HEK293T co-transfected with H-Cµ234tp and JC variants, 48 h; RIPA lysates with 10 mM NEM and TCA-precipitated supernatants; Halo ligands, anti-JC, anti-µ.
In series [3] the target is murine Cμ4tp domain, recombinant (mouse). Description: SEC; analytical SE-HPLC, Superdex 200 Increase 10/300, PBS pH 7.4, 25 °C; 1 mg/mL Cµ4tp (DTT removed) and/or 0.5 mg/mL J chain (if not stated otherwise) incubated 24 h at room temperature. The source holds these as a separate data set. A general note: In gel filtration, larger molecules generally elute earlier.
Series [4] deals with the molecule itself. Put plainly: cross-linking; disulfide mapping of recombinant JC by cross-linking MS: denatured, alkylated with iodoacetamide, trypsin and Asp-N, HPLC-MS/MS, Kojak with disulfide as crosslinker.

As a reminder, the stoichiometry N is the number of molecules, sites or subunits per partner or assembly.

In the case of “murine Cμ4tp domain, recombinant (domain or fragment)”, in series [1], the stoichiometry N came to 2 chains and the stoichiometry N (Cµ4tp2 dimers) came out at 6.

B1: Halo-tagged truncated µs variant lacking the variable and first constant domains (H-Cµ234tp) (domain or fragment, UniProt P01872 106-454, looked up)
chain: VAEMNPNVNVFVPPRDGFSGPAPRKSKLICEATNFTPKPITVSWLKDGKLVESGFTTDPVTIENKGSTPQTYKVISTLTISEIDWLNLNVYTCRVDHRGLTFLKNVSSTCAASPSTDILTFTIPPSFADIFLSKSANLTCLVSNLATYETLNISWASQSGEPLETKIKIMESHPNGTFSAKGVASVCVEDWNNRKEFVCTVTHRDLPSPQKKFISKPNEVHKHPPAVYLLPPAREQLNLRESATVTCLVKGFSPADISVQWLQRGQLLPQEKYVTSAPMPEPGAPGFYFTHSILTVTEEEWNSGETYTCVVGHEALPHLVTERTVDKSTGKPTLYNVSLIMSDTGGTCY
notes: secretory Ig µ heavy chain without the variable and first constant domains: Cµ2, Cµ3, Cµ4 and the tailpiece; the gene carries a signal peptide; Detected with anti-mouse IgM (µ chain); also called Halo-Cµ234tp; H-Cµ234tp WT; source: HEK293/HEK293T or HeLa-ERp44KO, transfected, in lysate or supernatant
Consider B1, for which the “stoichiometry N” value in series [2] is 6 H-Cµ234tp2 subunits (dimers).

B2: murine Joining Chain wild type, recombinant (natural protein, mouse)
chain: MGDDEATILADNKCMCTRVTSRIIPSTEDPNEDIVERNIRIVVPLNNRENISDPTSPLRRNFVYHLSDVCKKCDPVEVELEDQVVTATQSNICNEDDGVPETCYMYDRNKCYTTMVPLRYHGETKMVQAALTPDSCYPD
notes: methionine added at position 1; murine joining chain (J chain), G22-D159 of the precursor; Heterogeneous native and non-native disulfides; largely unstructured by CD; also called JC; J chain
B2: in series [3], the stoichiometry N (JC per (Cµ4tp2)5) was 1. Besides, in series [4], the binding result is on record as “binds”.
